# Laboratory results as given in patent publication US20190276511A1 (BIONTECH RNA PHARMACEUTICALS, published 2019).
# Read-outs that look alike come from different tables or passages of the source.
# T1: OX40-Fc (human, UniProt P43489 29-214)
# T1 construct: extracellular domain; hinge included for covalent assembly; also called OX40 receptor-Fc fusion protein; not shown: human Fc gamma 1 region including the hinge region
# T1 sequence (looked up): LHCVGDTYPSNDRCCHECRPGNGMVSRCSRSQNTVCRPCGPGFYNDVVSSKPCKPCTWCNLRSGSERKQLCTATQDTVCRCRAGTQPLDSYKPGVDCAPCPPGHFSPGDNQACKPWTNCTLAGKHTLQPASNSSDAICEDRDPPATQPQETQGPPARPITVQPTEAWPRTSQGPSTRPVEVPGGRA
# T2: CD27-Fc (human, UniProt P26842 20-191)
# T2 construct: extracellular domain; hinge included for covalent assembly; also called CD27 receptor-Fc fusion protein; not shown: human Fc gamma 1 region including the hinge region
# T2 sequence (looked up): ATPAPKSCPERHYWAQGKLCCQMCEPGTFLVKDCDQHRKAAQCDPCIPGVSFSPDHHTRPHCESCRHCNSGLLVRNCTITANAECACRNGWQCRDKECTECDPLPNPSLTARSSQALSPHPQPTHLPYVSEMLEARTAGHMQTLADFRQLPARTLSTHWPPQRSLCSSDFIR
# T3: OX40 receptor on cells (human, UniProt P43489 29-277)
# T3 sequence (looked up): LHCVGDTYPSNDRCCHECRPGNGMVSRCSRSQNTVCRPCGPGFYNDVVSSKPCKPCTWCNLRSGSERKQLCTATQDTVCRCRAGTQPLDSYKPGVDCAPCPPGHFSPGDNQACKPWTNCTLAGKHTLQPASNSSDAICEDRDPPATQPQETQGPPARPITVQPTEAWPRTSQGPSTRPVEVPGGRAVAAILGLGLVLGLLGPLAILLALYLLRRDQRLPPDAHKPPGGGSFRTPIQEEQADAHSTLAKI
# What was measured:
# 4-1BB-Fc = target: T4, 4-1BB-Fc (human, UniProt Q07011 24-186); assay: ELISA, coated receptor-Fc
# T4 construct: extracellular domain; hinge included for covalent assembly; also called 4-1BB receptor-Fc fusion protein; not shown: human Fc gamma 1 region including the hinge region
# OX40-Fc = target: T1, OX40-Fc; assay: ELISA, coated receptor-Fc
# CD40 receptor on cells [1] = target: T5, CD40 receptor on cells (human, UniProt P25942 21-277); assay: cell-based or functional assay
# T5 sequence (P25942 21-277): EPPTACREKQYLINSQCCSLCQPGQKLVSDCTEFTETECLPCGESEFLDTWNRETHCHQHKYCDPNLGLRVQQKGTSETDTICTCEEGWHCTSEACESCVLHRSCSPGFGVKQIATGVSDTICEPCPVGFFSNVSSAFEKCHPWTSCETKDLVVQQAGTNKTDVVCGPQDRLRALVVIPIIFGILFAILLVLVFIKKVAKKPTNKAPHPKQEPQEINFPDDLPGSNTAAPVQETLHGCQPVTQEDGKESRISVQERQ
# CD40-Fc [2] = target: T6, CD40-Fc (human, UniProt P25942 21-193); assay: ELISA, coated receptor-Fc
# T6 construct: extracellular domain; hinge included for covalent assembly; also called CD40 receptor-Fc fusion protein; not shown: human Fc gamma 1 region including the hinge region
# T6 sequence (P25942 21-193 limits assumed): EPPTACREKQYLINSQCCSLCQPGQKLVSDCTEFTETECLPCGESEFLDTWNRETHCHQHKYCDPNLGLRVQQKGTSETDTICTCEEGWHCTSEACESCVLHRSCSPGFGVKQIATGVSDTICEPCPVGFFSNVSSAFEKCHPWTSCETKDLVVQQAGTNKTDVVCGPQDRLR
# Protocol: (§1) Receptor binding of the Duokines was analyzed by ELISA using fusion proteins of the extracellular region of CD40, CD27, 4-1BB and OX40, respectively, with the human Fcγ1 region including the hinge region for covalent assembly (CD40-Fc, CD27-Fc, 4-1BB-Fc, OX40-Fc). Receptor-Fc fusion proteins (200 ng/well) were coated overnight at 4° C. and remaining binding sites were blocked with PBS, 2% skimmed milk powder (2% MPBS).
# CD27-Fc [3] = target: T2, CD27-Fc; assay: ELISA, coated receptor-Fc
# Protocol: as §1
# CD40 receptor on cells [4] = target: T5, CD40 receptor on cells; assay: cell-based or functional assay; remark: listed apart in the source
# CD40-Fc [5] = target: T6, CD40-Fc; assay: ELISA, coated receptor-Fc; remark: listed apart in the source
# Protocol: as §1, with “of the single-chain Duokines was” for “of the Duokines was”, “(2% MPBS). […] The interactions between scDuokine and receptor were dose-dependent with EC₅₀ values in the low nanomolar ranges (FIG. 11 AB, Tab. 2).” for “(2% MPBS).”
# CD27-Fc [6] = target: T2, CD27-Fc; assay: ELISA, coated receptor-Fc; remark: listed apart in the source
# Protocol: as §1, with “of the single-chain Duokines was” for “of the Duokines was”, “(2% MPBS). […] The interactions between scDuokine and receptor were dose-dependent with EC₅₀ values in the low nanomolar ranges (FIG. 11 AB, Tab. 2).” for “(2% MPBS).”
# CD40-Fc [7] = target: T6, CD40-Fc; assay: ELISA, coated receptor-Fc; remark: listed apart in the source
# OX40 receptor on cells = target: T3, OX40 receptor on cells; assay: cell-based or functional assay
binding result (4-1BB-Fc),binding result (OX40-Fc),"Receptor activation (EC50, nM) (CD40 receptor on cells [1]) [nM]",EC50 (CD40-Fc [2]) [nM],EC50 (CD27-Fc [3]) [nM],"Receptor activation (EC50, nM) (CD40 receptor on cells [4]) [nM]",EC50 (CD40-Fc [5]) [nM],EC50 (CD27-Fc [6]) [nM],binding result (CD40-Fc [7]),"Receptor activation (EC50, nM) (OX40 receptor on cells) [nM]",Binder
no binding (tested: 100 nM (FIG. 4)),no binding (tested: 100 nM (FIG. 4)),2.36,8.06,3.15,,,,,,"CD40L-CD27L (ligand, Duokine from HEK293, FLAG-purified; VH leader left out; homotrimer by SEC; also called Duokine CD40L-CD27L; not shown: N-terminal FLAG tag) GDQNPQIAAHVISEASSKTTSVLQWAEKGYYTMSNNLVTLENGKQLTVKRQGLYYIYAQVTFCSNREASSQAPFIASLCLKSPGRFERILLRAANTHSSAKPCGQQSIHLGGVFELQPGASVFVNVTDPSQVSHGTGFTSFGLLKLGGGGSGGGGSGGGGSSLGWDVAELQLNHTGPQQDPRLYWQGGPALGRSFLHGPELDKGQLRIHRDGIYMVHIQVTLAICSSTTASRHHPTTLAVGICSPASRSISLLRLSFHQGCTIASQRLTPLARGDTLCTNLTGTLLPSRNTDETFFGVQWVRP"
no binding (tested: 100 nM (FIG. 10)),no binding (tested: 100 nM (FIG. 10)),,,,3.1,4.26,3.42,,,"scCD40L-scCD27L (ligand, scDuokine from HEK293, FLAG-purified; VH leader left out; also called single-chain Duokine scCD40L-scCD27L; not shown: N-terminal FLAG tag) GDQNPQIAAHVISEASSKTTSVLQWAEKGYYTMSNNLVTLENGKQLTVKRQGLYYIYAQVTFCSNREASSQAPFIASLCLKSPGRFERILLRAANTHSSAKPCGQQSIHLGGVFELQPGASVFVNVTDPSQVSHGTGFTSFGLLKLGGGSGGGGDQNPQIAAHVISEASSKTTSVLQWAEKGYYTMSNNLVTLENGKQLTVKRQGLYYIYAQVTFCSNREASSQAPFIASLCLKSPGRFERILLRAANTHSSAKPCGQQSIHLGGVFELQPGASVFVNVTDPSQVSHGTGFTSFGLLKLGGGSGGGGDQNPQIAAHVISEASSKTTSVLQWAEKGYYTMSNNLVTLENGKQLTVKRQGLYYIYAQVTFCSNREASSQAPFIASLCLKSPGRFERILLRAANTHSSAKPCGQQSIHLGGVFELQPGASVFVNVTDPSQVSHGTGFTSFGLLKLGGGGSGGGTGGGGSSLGWDVAELQLNHTGPQQDPRLYWQGGPALGRSFLHGPELDKGQLRIHRDGIYMVHIQVTLAICSSTTASRHHPTTLAVGICSPASRSISLLRLSFHQGCTIASQRLTPLARGDTLCTNLTGTLLPSRNTDETFFGVQWVRPGGGSGGGSLGWDVAELQLNHTGPQQDPRLYWQGGPALGRSFLHGPELDKGQLRIHRDGIYMVHIQVTLAICSSTTASRHHPTTLAVGICSPASRSISLLRLSFHQGCTIASQRLTPLARGDTLCTNLTGTLLPSRNTDETFFGVQWVRPGGGSGGGSLGWDVAELQLNHTGPQQDPRLYWQGGPALGRSFLHGPELDKGQLRIHRDGIYMVHIQVTLAICSSTTASRHHPTTLAVGICSPASRSISLLRLSFHQGCTIASQRLTPLARGDTLCTNLTGTLLPSRNTDETFFGVQWVRP"
no binding (tested: 100 nM (FIG. 10)),,,,,,,4.62,no binding (tested: 100 nM (FIG. 10)),1.27,"scOX40L-scCD27L (ligand, scDuokine from HEK293, FLAG-purified; VH leader left out; also called single-chain Duokine scOX40L-scCD27L; not shown: N-terminal FLAG tag) QVSHRYPRIQSIKVQFTEYKKEKGFILTSQKEDEIMKVQNNSVIINCDGFYLISLKGYFSQEVNISLHYQKDEEPLFQLKKVRSVNSLMVASLTYKDKVYLNVTTDNTSLDDFHVNGGELILIHQNPGEFCVLGGGSGGGQVSHRYPRIQSIKVQFTEYKKEKGFILTSQKEDEIMKVQNNSVIINCDGFYLISLKGYFSQEVNISLHYQKDEEPLFQLKKVRSVNSLMVASLTYKDKVYLNVTTDNTSLDDFHVNGGELILIHQNPGEFCVLGGGSGGGQVSHRYPRIQSIKVQFTEYKKEKGFILTSQKEDEIMKVQNNSVIINCDGFYLISLKGYFSQEVNISLHYQKDEEPLFQLKKVRSVNSLMVASLTYKDKVYLNVTTDNTSLDDFHVNGGELILIHQNPGEFCVLGGGGSGGGTGGGGSSLGWDVAELQLNHTGPQQDPRLYWQGGPALGRSFLHGPELDKGQLRIHRDGIYMVHIQVTLAICSSTTASRHHPTTLAVGICSPASRSISLLRLSFHQGCTIASQRLTPLARGDTLCTNLTGTLLPSRNTDETFFGVQWVRPGGGSGGGSLGWDVAELQLNHTGPQQDPRLYWQGGPALGRSFLHGPELDKGQLRIHRDGIYMVHIQVTLAICSSTTASRHHPTTLAVGICSPASRSISLLRLSFHQGCTIASQRLTPLARGDTLCTNLTGTLLPSRNTDETFFGVQWVRPGGGSGGGSLGWDVAELQLNHTGPQQDPRLYWQGGPALGRSFLHGPELDKGQLRIHRDGIYMVHIQVTLAICSSTTASRHHPTTLAVGICSPASRSISLLRLSFHQGCTIASQRLTPLARGDTLCTNLTGTLLPSRNTDETFFGVQWVRP"
